“And” between values parts separate entries of the source, which are not always exact repeats. Equal entries are not always repeated.

Data on 2 molecules can be found in patent publication US6590086.

The target in experiment [1] is SV40 large T antigen (SV40) (UniProt P03070). Briefly: in vitro phosphorylation of the large T:Rb complex, immunoprecipitation with anti-large T antibody.
Experiment [2] addresses SV40 large T antigen (SV40), P03070. The description is as above. The note with it: remark: other sources report otherwise.

On to RB-E (from UniProt P06400 2-928), for which the percent of the Rb protein released from large T by phosphorylation in experiment [1] was found to be 70%.

B1: RB-H, P06400 2-928 (protein)
chain: PPKTPRKTAATAAAAAAEPPAPPPPPPPEEDPEQDSGPEDLPLVRLEFEETEEPDFTALCQKLKIPDHVRERAWLTWEKVSSVDGVLGGYIQKKKELWGICIFIAAVDLDEMSFTFTELQKNIEISVHKFFNLLKEIDTSTKVDNAMSRLLKKYDVLFALFSKLERTCELIYLTQPSSSISTEINSALVLKVSWITFLLAKGEVLQMEDDLVISFQLMLCVLDYFIKLSPPMLLKEPYKTAVIPINGSPRTPRRGQNRSARIAKQLENDTRIIEVLCKEHECNIDEVKNVYFKNFIPFMNSLGLVTSNGLPEVENLSKRYEEIYLKNKDLDARLFLDHDKTLQTDSIDSFETQRTPRKSNLDEEVNVIPPHTPVRTVMNTIQQLMMILNSASDQPSENLISYFNNCTVNPKESILKRVKDIGYIFKEKFAKAVGQGCVEIGSQRYKLGVRLYYRVMESMLKSEEERLSIQNFSKLLNDNIFHMSLLACALEVVMATYSRSTSQNLDSGTDLSFPWILNVLNLKAFDFYKVIESFIKAEGNLTREMIKHLERCEHRIMESLAWLSDSPLFDLIKQSKDREGPTDHLESACPLNLPLQNNHTAADMYLSPVRSPKKKGSTTRVNSTANAETQATSAFQTQKPLKSTSLSLFYKKVYRLAYLRLNTLCERLLSEHPELEHIIWTLFQHTLQNEYELMRDRHLDQIMMCSMYGICKVKNIDLKFKIIVTAYKDLPHAVQETFKRVLIKEEEYDSIIVFYNSVFMQRLKTNILQYASTRPPTLSPIPHIPRSPYKFPSSPLRIPGGNIYISPLKSPYKISEGLPTPTKMTPRSRILVSIGESFGTSEKFQKINQMVCNSDRVLKRSAEGSNPPKPLKKLRFDIEGSDEADGSKHLPGESKFQQKLAEMTSTRTRMQKQKMNDSMDTSNKEEK
In the case of B1, in experiment [2], the percent of the Rb protein that remained bound after phosphorylation is 20% and 30%.
